The values below come from publication PMC6625358 (Structure (London, England : 1993), 2017).

Sequences and labels used below:
B1: Nop58p_447 (truncated Nop58p, residues 1–447) (domain or fragment, Saccharomyces cerevisiae, UniProt Q12499 1-447, looked up)
chain: MAYVLTETSAGYALLKASDKKIYKSSSLIQDLDSSDKVLKEFKIAAFSKFNSAANALEEANSIIEGKVSSQLEKLLEEIKKDKKSTLIVSETKLANAINKLGLNFNVVSDAVTLDIYRAIKEYLPELLPGMSDNDLSKMSLGLAHSIGRHKLKFSADKVDVMIIQAIALLDDLDKELNTYAMRCKEWYGWHFPELAKIVTDSVAYARIILTMGIRSKASETDLSEILPEEIEERVKTAAEVSMGTEITQTDLDNINALAEQIVEFAAYREQLSNYLSARMKAIAPNLTQLVGELVGARLIAHSGSLISLAKSPASTIQILGAEKALFRALKTKHDTPKYGLLYHASLVGQATGKNKGKIARVLAAKAAVSLRYDALAEDRDDSGDIGLESRAKVENRLSQLEGRDLRTTPKVVREAKKVEMTEARAYNADADTAKAASDSESDSDDE
B2: Rvb1/2p complex (tag-free) (complex, Saccharomyces cerevisiae)
chain 1: MVAISEVKENPGVNSSNSGAVTRTAAHTHIKGLGLDESGVAKRVEGGFVGQIEAREACGVIVDLIKAKKMSGRAILLAGGPSTGKTALALAISQELGPKVPFCPLVGSELYSVEVKKTETLMENFRRAIGLRIKETKEVYEGEVTELTPEDAENPLGGYGKTISHVIVGLKSAKGTKTLRLDPTIYESIQREKVSIGDVIYIEANTGAVKRVGRSDAYATEFDLETEEYVPLPKGEVHKKKEIVQDVTLHDLDVANARPQGGQDVISMMGQLLKPKKTEITEKLRQEVNKVVAKYIDQGVAELIPGVLFIDEVNMLDIEIFTYLNKALESNIAPVVVLASNRGMTTVRGTEDVISPHGVPPDLIDRLLIVRTLPYDKDEIRTIIERRATVERLQVESSALDLLATMGTETSLRYALQLLAPCGILAQTSNRKEIVVNDVNEAKLLFLDAKRSTKILETSANYL
chain 2: MSIQTSDPNETSDLKSLSLIAAHSHITGLGLDENLQPRPTSEGMVGQLQARRAAGVILKMVQNGTIAGRAVLVAGPPSTGKTALAMGVSQSLGKDVPFTAIAGSEIFSLELSKTEALTQAFRKSIGIKIKEETELIEGEVVEIQIDRSITGGHKQGKLTIKTTDMETIYELGNKMIDGLTKEKVLAGDVISIDKASGKITKLGRSFARSRDYDAMGADTRFVQCPEGELQKRKTVVHTVSLHEIDVINSRTQGFLALFTGDTGEIRSEVRDQINTKVAEWKEEGKAEIVPGVLFIDEVHMLDIECFSFINRALEDEFAPIVMMATNRGVSKTRGTNYKSPHGLPLDLLDRSIIITTKSYNEQEIKTILSIRAQEEEVELSSDALDLLTKTGVETSLRYSSNLISVAQQIAMKRKNNTVEVEDVKRAYLLFLDSARSVKYVQENESQYIDDQGNVQISIAKSADPDAMDTTE
B3: Pih1p-Tah1p complex (His-tagged Pih1p, non-tagged Tah1p) (complex, Saccharomyces cerevisiae)
chain 1: MADFLLRPIKQRHRNEDKYVSVDAADGSVSKIEPIADFVIKTKLLSANGPEKLQDGRKVFINVCHSPLVPKPEVDFNARIVFPLIIQNEWEIPIITSCYRMDHDKKGQECYVWDCCINSDCSRWICDDIQLREILVEWCLESCEIRDSVVLCRDRIAFPKMKKKGAELPALEVLNDELHQDYKAKMHKIIEEEAGDPMSILRGRNDDGDDNNDPDDGTLPPLFPIENKISGAKIEEIDKNEIAHRNLKQAPAPAPAPHEQQEDVPEYEVKMKRFKGAAYKLRILIENKAPNSKPDRFSPSYNFAENILYINGKLSIPLPRDIVVNAADIKIFHIRKERTLYIYI
chain 2: MSQFEKQKEQGNSLFKQGLYREAVHCYDQLITAQPQNPVGYSNKAMALIKLGEYTQAIQMCQQGLRYTSTAEHVAIRSKLQYRLELAQGAVGSVQIPVVEVDELPEGYDRS
B4: Pih1p (His-tagged) (natural protein, Saccharomyces cerevisiae, UniProt P38768 1-344, looked up)
chain: B3 chain 1
B5: Pih1p 1–284 fragment (domain or fragment, Saccharomyces cerevisiae, UniProt P38768 1-284, looked up)
chain: MADFLLRPIKQRHRNEDKYVSVDAADGSVSKIEPIADFVIKTKLLSANGPEKLQDGRKVFINVCHSPLVPKPEVDFNARIVFPLIIQNEWEIPIITSCYRMDHDKKGQECYVWDCCINSDCSRWICDDIQLREILVEWCLESCEIRDSVVLCRDRIAFPKMKKKGAELPALEVLNDELHQDYKAKMHKIIEEEAGDPMSILRGRNDDGDDNNDPDDGTLPPLFPIENKISGAKIEEIDKNEIAHRNLKQAPAPAPAPHEQQEDVPEYEVKMKRFKGAAYKLRIL
B6: DII-truncated Rvb2p (deleting residues 134–234) (natural protein, Saccharomyces cerevisiae, UniProt Q12464 1-471, looked up)
chain: MSIQTSDPNETSDLKSLSLIAAHSHITGLGLDENLQPRPTSEGMVGQLQARRAAGVILKMVQNGTIAGRAVLVAGPPSTGKTALAMGVSQSLGKDVPFTAIAGSEIFSLELSKTEALTQAFRKSIGIKIKEETVVHTVSLHEIDVINSRTQGFLALFTGDTGEIRSEVRDQINTKVAEWKEEGKAEIVPGVLFIDEVHMLDIECFSFINRALEDEFAPIVMMATNRGVSKTRGTNYKSPHGLPLDLLDRSIIITTKSYNEQEIKTILSIRAQEEEVELSSDALDLLTKTGVETSLRYSSNLISVAQQIAMKRKNNTVEVEDVKRAYLLFLDSARSVKYVQENESQYIDDQGNVQISIAKSADPDAMDTTE

Several values for one entry are separate records, joined by “and”; a condition that tells them apart may be missing. Equal entries are not always repeated.

Data set [1] addresses ScR2TP complex (Rvb1p, Rvb2p, His-Pih1p, Tah1p) (Saccharomyces cerevisiae, UniProt Q03940 1-463; Q12464 1-471; P38768 1-344; P25638 1-111). Briefly: AUC.
The data set “AUC” deals with the molecule itself. Briefly: AUC.
Data set [2] deals with B2. The experiment in a line: label-free quantitative mass spectrometry.
Another data set deals with Rvb2p (non-tagged) (Saccharomyces cerevisiae, UniProt Q12464 1-471). The experiment in a line: pull-down.
Data set [3] deals with B2. The experiment in a line: ITC.
Data set [4] has as its target B1. Briefly: cross-linking.
Data set [5] concerns the target T1, Rvb1p (non-tagged) (Saccharomyces cerevisiae, UniProt Q03940 1-463). The experiment in a line: cross-linking.
The target in data set [6] is B2. Briefly: AUC.
Data set [7] deals with T1, Rvb1p (non-tagged). Briefly: pull-down.

Consider B1, for which the binding result in data set [1] is on record as “binds”.
As for B2, the binding result in the data set “AUC” is listed as “binds”.
As a reminder, the stoichiometry N is the number of molecules, sites or subunits per partner or assembly. As to B3, the “stoichiometry N” value in data set [2] is 1.6 Pih1p per 3 Rvb1p and 3 Rvb2p and 0.5 Tah1p per 3 Rvb1p. Moreover, the binding result in the data set with Rvb2p (non-tagged) is recorded as “binds”. In data set [3], the “KD of the first of two serial sites (KD^1), apparent” value came out at 155 nM and the “KD of the second of two serial sites (KD^2), apparent” value is 1200 nM.
B4: the binding result (in [4]; with Rvb1p (non-tagged) [5]) was “binds” throughout.
Regarding B5, the binding result in data set [6] is on record as “binds”.
As for B6, in the data set with Rvb1p (non-tagged) [7], the binding result is “binds”.
